# Data published in the nanobody polyreactivity screen of Harvey et al. (2022).
# Assay: yeast display, Sf9 membrane polyspecificity reagent, FACS + sequencing; frameworks hold sequencing errors
# How it was run: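 Polyreactivity labels are assigned by the sorting gate from which each nanobody was recovered. The gates were low and high (top ~1%), set on anti-HA fluorescence for expression and streptavidin fluorescence for reagent binding. Before sorting, galactose-induced (36–48 hours) yeast display cells were stained for 1 hour at 4 °C with 10% biotinylated, detergent-solubilized Sf9 membrane reagent.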
row,Sequence,polyreactivity (PSR sort gate)
1,QVQLVESGGCLVQAGGSLRLSCAASGFTFRYYAMGWYRQAPGKERELVASITGHGGSTYYADSVKGRFTISRDNAKNTVYLQMKSLKPEDTAVYYCNARVRGYYEYNYWGQGTQVTVST,high polyreactivity
2,QVQLVESGGCLVQAGGSLRLSCAASGFTFYRSVMGWYRQAPGKERELVAAITSDGGSTYYAVSVKGRFTISRDNGKNTVYLQMNSLKPEDTAVYYCSADASTWYTEEYWGQGNQVTVSS,low polyreactivity
3,QVQLVESGGCLVQAGGSLRLSCAASGIIFYTYAMGWYRQAPGKEREFVAGIRWSGSSTYYADSVKGRFTISRDNAKNTVYLQMNSLKPEDTAVYYCATGQPYGPLYSLGYGYWGQGTQVTVSS,high polyreactivity
4,QVQLVESGGCLVQAGGSLRLSCAASGITFRSYTMGWYRQAPGQESELVAAISYSAGSTYYADSVKGRFTISRDNAKNTVYLQMNSLKPEDTAVYYCAARPRLVVLVIRFYYWGQGTQVTVSS,high polyreactivity
5,QVQLVESGGCLVQAGGSLRLSCAASGITFVGNAMGCYRQAPVKERELVAGIRGNGGSTYYADSVKGRFTISRDYAKNTVYLQMNSLKPEDTAVYYCAAAAYYADFDYWGQGTQVTVSS,low polyreactivity
6,QVQLVESGGCLVQAGGSLRLSCAASGLIFPSYAMGWYRQAPGKERELVAAITFSGSDTNYADSVKGRFTISRDNAKNTVYLQLYSLIPEDTAVYYCAAAYFDFWGWLHDYWGQGTQVTVSS,low polyreactivity
7,QVQLVESGGCLVQAGGSLRLSCAASGLIFRGYAMGWYRQAPGKERELVATITGGGRTNYADSVKGRFTLSRDNAKNTVYLQMNSLKPEDTAVYYCNTGYYGRLRDDYWGQGTQVTVSS,high polyreactivity
8,QVQLVESGGCLVQAGGSLRLSCAASGLIFYGYAMGWYRQAPGKERELVAAITSGGSTNYADSVKGRFTISRDNAKNTVYLQMNSLKPEDTSFYYCNADVIYYYRAYPVYEYDYWGQGTQVTVSS,low polyreactivity
9,QVQLVESGGCLVQAGGSLRLSCAASGRIFSGYVMGWYRQAPGKERELVAGITYRDGSTYYADSVKGRFTISRDKEKNTVYLQMNSLKPEDTAVYYCNADDYNDIPYDYWGQGTHVTVSS,low polyreactivity
10,QVQLVESGGCLVQAGGSLRLSCAASGRTFGRNAMGWYRKAPGKERDLVAAISRSGASTYYADSVKGRFTISRDNAKITVYLQMNSLKEEDTAVYYCAKDVWGSRYAYDYWGQGTQVTVSS,low polyreactivity
11,QVQLVESGGCLVQAGGSLRLSCAASGRTFSSNALGWYRHAPGKERELVAAITTTGGRTYYADSVKGRFTISRDNAKNTVYLQMNSLKPEDTAVYYCAARRRYGYDFWGHGTQVTVSS,high polyreactivity
12,QVQLVESGGCLVQAGGSLRLSCAASGRTFVNNAMGWYRQAPGKYRELVAAITRSGGLTYSADSVKGRFTISRDHAKNTVYLQMTMLKPEYTAVYDCATAIVRLRHDDDWGQGTQVTVSS,high polyreactivity
13,QVQLVESGGCLVQAGGSLRLSCAASGRTFYTYAMGWYRQAPGQERELVAAITYRGGNTYYADSVKGRFTISRDNAKNTVYLQMNSLKREDTAVYYCAATYKRRSGQSFDYWGQGTQVTVSS,high polyreactivity
14,QVQLVESGGCLVQAGGSLRLSCAASGSIFERNVMGWYRHAPGKERELVAAITSGGSTNYADSVKGRFTISRDNAKNTVYLQMNSLKPEETAVYYCAADVPYRSRFYRYRLSGGDYWGQGTQVTVSS,low polyreactivity
15,QVQLVESGGCLVQAGGSLRLSCAASGSIFLYNAMGWYRQAPGKERELVAAIPYSGGRTYYADSVKGRFTISRDNAKNTVSFQMNSLKPEDTAFYYCAVKSFSGHGDYWGQGTQVTVSS,low polyreactivity
16,QVQLVESGGCLVQAGGSLRLSCAASGSIFPGYAMGWYRQATGKERELVAAISTSGGSTYADSVKGRFTISRDNAKNTVYLQMNSLKPEDTAVYYCAATYTYTSPVYYYLDGPWPYDYWGQGTQVTVSS,low polyreactivity
17,QVQLVESGGCLVQAGGSLRLSCAASGSIFRYYAMGWNRQAPGKERELVAAISSSGDNTYYADSVKGRFTISRDNAKNTVYLQMNSLKPEDTAVYYCAVRGERRYIYDYWGQGSQVTVSS,high polyreactivity
18,QVQLVESGGCLVQAGGSLRLSCAASGSIFSAYAMGWYRQAPGKERELVAGITSSGDSTYYADSVKGRFTISRDKAKNTVYLQMNSLKPEDTAVYYCNRVLGGVPFDHWGQGTQVTVSS,low polyreactivity
19,QVQLVESGGCLVQAGGSLRLSCAASGSIFYRNAMGWYRQAPGKERELVAAISSDGSTNYADSVKGRFTISRDNAKNTVYLQMNSLKPEDTAVYYCAAPWTQILDYWGQGTQVTVSS,low polyreactivity
20,QVQLVESGGCLVQAGGSLRLSCAASGSINRSYAMAWYRQAPGKDWELVASISRRGGSTYYADSVKGRFTISRDNAKNSVYLQMNRLKPEDSAVYYCAAVRYNSRVSTTPSEMYYWGQGTQVTVSS,low polyreactivity
21,QVQLVESGGCLVQAGGSLRLSCAASGSISYSYSMGWYRQAPGKERELVATISWGGGRTYYADSVKGRFTISRDNAKNTVYLQMNSLKPEDTAVYYFATAYRFRYGFAKRYDYWGQGTQVTVSS,low polyreactivity

row,Sequence,polyreactivity (PSR sort gate)
1,QVQLVESGGCLVQAGGSLRLSCAASGSIYGYTMGWYRQAPGKERELVAAINRRADRTYYADSVKGRFTISRDNAKNTVYLQMNSLKPEDTAVYYCATLQGDSSSQYDYWGHGTQVTVSS,high polyreactivity
2,QVQLVESGGCLVQAGGSLRLSCAASGSTFRHYAMGWYRQQPGKERELVASISKSAGRTYYADSVKGRFTISRDIAKNTVNLQMNSLKPEDTAVYYCAAYRIHVYPAGLAWQYYYELDYWGQGTQLTVSS,high polyreactivity
3,QVQLVESGGCLVQAGGSLRLSCAASGSTFTSNAMGWYRQAAGKEWQFVAAISFGGGITYDADSVKGRFTISRDNAKNTVSLQMNSLKPEDTAVYYCAADGEYPHSEDFEYWGQGTQGTVSS,low polyreactivity
4,QVQLVESGGCLVQAGGSLRLSCAASRFTFTYYAMGWYRHAPGKESELVAAITRRGGRTYYAYSVKGRFTISRDNAKNTVYLQMNSLKPEDTAVYYCNADEYGGSTGRKGRYNYWGQGTQVTVSS,low polyreactivity
5,QVQLVESGGCLVQAGGSLRLSCAPSGSIFKVYAKGWYRQAPGKVRELVAAITNGGSTYADSVKGRFTMSRDNAKYTVYLQMNSLKPEDTAVYYCDSDYRGHSGSWYDYWGQGTQVTVSS,low polyreactivity
6,QVQLVESGGCLVQAGGSLRLSCPASGNNFTAYAMGWYRQAPAKERELVAAISSSGRTNYADSVKGRFTISRDNAKNTVYLQMNSLKPEDTAVYYCAAYRLSNPFYKYDYWGQGTQVTVSS,high polyreactivity
7,QVQLVESGGCLVQAGGSLRLSCSASGIIFFPYAMGWYRQAPGKERELVASINISDSSTYYADSVNGRFTISRDNAKNTVYLQMNTLKPEDSAVSYCAADNPGDSWYWHGNWGQGTQVTVSS,low polyreactivity
8,QVQLVESGGCLVQAGGSLRLSFAASGSTLPYYSMGWYRHAPGKERELVAAITSSGGDTYYADSVKGRFTISRDIAKNTVYLQMNSLKPEDTAVYYCAKSFSARSTVRKLFYFAYDYWGQGTQVTVSS,low polyreactivity
9,QVQLVESGGCLVQAGGSLRLSGAASGYTFFFNVMGWYRPAPGKERQMVAAISYSGGSTNYADSVKGRFTISRDNAKITVYLQINSLKPEDTAVYYCNARSVSRNGYQDDYWGQGTQVTVSS,low polyreactivity
10,QVQLVESGGCLVQAGGSLRLSSAASGFIIPGNPMCWYRQAPAKERDLVAAITSGGSTKYADSVKGRITISRDNAKNTDYLQMNSLKPEDTAVYYCAARGFPPGDEWHPYDYWGQGTQVTVSS,low polyreactivity
11,QVQLVESGGCLVQAGGSLRLTCAASGFIFYRYAMGWYRHAPGKESELVAAISKSGSSTYYADSVKGRFTISRDNAKNTVYLQMNSLKPEDTAVYYCARDRQSRSLLEDDYWGQGTQVTVSS,high polyreactivity
12,QVQLVESGGCLVQAGGSRRLSCAASGLTIYHYAMGWYRQATGKERELVAAITNGYSTYYADSVKGRFTISLDNAMNTVYLQMNSLKPEDTAVYSCNADQPGDQHSGYWGQGTQVTVSS,low polyreactivity
13,QVQLVESGGCLVQAGGSVRLSCDASGITFVGNDMGWYRQAPGKERELVAAISSGSTHYADSVKGRFTISRDNAKNTVYLLMNSLKPEDTAFYYCAADIRGGLSNYSPKDYDYWGLGTQVTVSS,low polyreactivity
14,QVQLVESGGCLVQAGGTLRLSCASSGNTFVDYGMGWYRQAPGKERELVAAITRGGTTKYADSVKGRFTISRVNAKNKVYLQMNSLKPEDTAVYYCAAEWPVNFDYWGKGTQVTVSS,low polyreactivity
15,QVQLVESGGCLVQAGRSLRLSCAASGIIFGGNVMGWYRQAAGKERQLVAAINWSVVTTYYADSVKGRFTISRDNAKNTVYLQMNSLKAADTAVYYCNKDYVTAPYFYFIDTMDYWGQGTQGTVSS,low polyreactivity
16,QVQLVESGGDLVQAGGSLRLSCAASGRTFRYYAMGWYRLAPGKERELVAAISSSGDRTYYADSVKGRFTISRDTAKNTVYLQLNSLKPEDTAVYYCAADRGARGDYCGQGTQVTVSS,high polyreactivity
17,QVQLVESGGDLVQAGGSLRLSCAASGRTFSANGMGWYRQAPGKERELVAAITRSGGITYYADSVKGRFTISRDNAKNTVYLQMNSLKPEDTAVYYCAASVYSLSRRSWMDYWGQGTQVTVSS,low polyreactivity
18,QVQLVESGGDLVQAGGSLRLSCAATGYTFLRYTMGWYRQAPGKERELVAAITSGTSTYYADSVKGRFTISRDNEKNTVYLQMNSLKPEDTAVYYCDKTPTRQRYGHWGQGTQVTVSS,high polyreactivity
19,QVQLVESGGGCSGGRSLRLSCAASGLIFVDNAMGWYRQAPGKERELVAAITWSTGSTYYADSVKGRFTISRDNAKNTVYLQMNSLKPEDTAVYYCNKRYKYRYYYWGQGTQVTVSS,low polyreactivity
20,QVQLVESGGGFFQAGGRLRLSCAASGRIFGINAMGWYRQAPGKERELVAAISRSGGRTYYADSVKGRFTISRDNGKNTVYFQMNSLKPEDTAVYDCAQGDAHSYSRYDYWGPGTQVTVSS,high polyreactivity
